# Test results taken from publication PMC3430601, “Characterization of β-N-acetylhexosaminidase (LeHex20A), a member of glycoside hydrolase family 20, from Lentinula edodes (shiitake mushroom)” (AMB Express, 2012).
# Legend:
# [1] = substrate: CC(=O)N[C@H]1[C@H](Oc2ccc([N+](=O)[O-])cc2)O[C@H](CO)[C@@H](O)[C@@H]1O; assay: purified protein; type: biochemical, Lentinula edodes; settings: 20 mM sodium acetate pH 4.2, 37 °C, 15 min
# [2] = substrate: CC(=O)N[C@H]1[C@H](Oc2ccc([N+](=O)[O-])cc2)O[C@H](CO)[C@H](O)[C@@H]1O; assay: purified protein; type: biochemical, Lentinula edodes; settings: 20 mM sodium acetate pH 4.2, 37 °C, 15 min
protein,measurement,setting,value
"LeHex20A (Lentinula edodes) (protein, native, purified from fruiting bodies; secreted mature form, 17-residue signal peptide predicted (ORF 553 aa, mature 536 aa); N-terminus LWPLPTDFSTGTAAL; 79 kDa on SDS-PAGE (58 kDa calculated, glycosylated); GH20) LWPLPTDFSTGTAALTLASDFDIDISAIPNPPQDLLDAISRTKGYLQTDQLEALVVDRGASYNQSLQNASSLVSLVLSYDSGVAGEPTSISEEAIDDIDSRVEGYTLTVPEDGSAATIKANSTLGLFRGLTTFGQLWYDLNNTTYTIEAPIAITDSPVFPYRGFMLDTARNYFPVSDILRTLDAMSWVKMTTFHWHMVDSQSFPLEVPEFPELSLNGAYGPSLVYSTNDVQTIVSYANARGIDVLPEIDTPGHTAIIAQAYPEHVACPGATPWATYANEPPAGQLRFANANTTNFTASLISSVSARFPGKYFSTGGDELNTECYAIDESTQADLNTTGKTLEQALDTFTQTVQSVLEDSGKTPVVWEEMVLDFNLTLSNNTIVMVWISSADAAAVADKGFRLVQAPSDYFYLDCGAGGWVGANPSGNSWCDPFKTWQYAYSFDPVANLTDAQAKLVIGGEHLLWTEQSHASNLDSIVWPRAAASAELFWSGPGGNISEALPRLHDVAFRMTQRGVGAIALQPLWCALRPGVCDLTA",Km,[1],340 ± 10 µM
same,kcat,[1],335 ± 10 s⁻¹
same,kcat/Km,[1],983000 M⁻¹ s⁻¹
same,Km,[2],430 ± 30 µM
same,kcat,[2],177 ± 8 s⁻¹
same,kcat/Km,[2],411000 M⁻¹ s⁻¹
